According to PMC5576569 (Journal of molecular biology, 2017):

Biological target: the molecule itself
Test: AUC

B1: SSB-ΔL, linkerless variant of E. coli SSB (SSBΔ115–168) (natural protein, UniProt P0AGE0 2-178, looked up)
chain: ASRGVNKVILVGNLGQDPEVRYMPNGGAVANITLATSESWRDKATGEMKEQTEWHRVVLFGKLAEVASEYLRKGSQVYIEGQLRTRKWTDQSGQDRYTTEVVVNVGGTMQMLGGMDFDDDIPF
stoichiometry N: 4
